Experiment: protease stability score; higher = more stable; yeast display proteolysis, trypsin and chymotrypsin;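 further: log10 excess protease needed over predicted unfolded state with 0 meaning unfolded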

| Sequence | protease stability score |
| --- | --- |
| DEEIKRHIKEMMEAISHGDPDQLRRLFDPNVDIRVGDKEITGMEEYLHQLKHKLDSAEFEYKHYEVKVRNGSVRARYEYIVRINGRPNSVTAEVEIKMTNGKAKHAVYRFSDEDKKRLEG | 0.698 |
| DERALDVVRKYQEALNSNDPEHLVELIDPNAKLQVGDKTIHGREQLHHEAQKRKDEMRLNVEVHDLRDRGSTVQIHARRSYSHNGRPRSERYVLHATIRGDKIDKMHFQTDS | -0.243 |
| DEDAHRRASTLMTAIENNDPHKVMQMFDEDAKVDVGDKRVSGRERQAEEERERNTQSRVRYKSYKIDAQGNKVRVHADFEVHHNGRPDRKRMKAVFNYDNGKIKQATVKDDK | -0.235 |
| DEEAQKKVEEWERAIEHGNEQQARELADKDVRIEVGDQRVRGMEDIARTQVRKQREITRHVRRFDAHATGDKIRVELVFEVHHDGQPRHQKYELRMVMHNGRVHSVRVETRR | 0.412 |
| DSDKIDNVVKTIMHDLRKGNPERVMKNADKDVKIVVGDKRYHGRETLETLMKEMVDQADHIQFHSVNIRGEKVVVVAVLQHNGVNVDVQFNMEIDNGRATKVELKVRNPEQQKKFDS | 0.583 |
| DDDEARHRAEEIVRQMQSNNWKDIDKLMDKNVQIRVGDKRYTGRTRARKFIKTIADRVDHAHVVNVTVQGNKARFEFIARFDGEHVRMQMVFELHNGHAKKVEVDPEELKQLKK | 1.04 |
| DEDLLKQLHTYLRAHETGDRSRLRKLMDPNAEVRIGNHELHGREEILTQQVEEAHKITQYFEIDSVEVRPNSIKVKAHVSMNVNGQPFRTEVEYDVRIRNGRIQEITYRLPEEFLREVNR | -0.229 |
| DEDELAQKLVEQMVKAIRHGDPHDFVKMIDKNATMDVGDKRLHGREKLEEFIKKLVDKYDHLDAKVSHMDLDNGQIKVNIEIHLVKNGKTDHITLDARADVTNGDARFVDFQWR | 1.47 |
| EKEQKERLEEAQHARESGDTERLKDLFDENVQVEVGDKRVNGMEKFVKDEVKKQRDLRISVTYTEMRNDPNHVDITVEVVEDKNGEPQRRVLEINIEYENGRARMMRVRRVQ | 1.1 |
| DDETLNELVETLMKAWNQGNPDDLNKLIDKDAKIIIGETHIHGRDEFRKWADTLHRQVDHYQFDSVTAHNGRVRMHMKLRVNGVNVVVHVKVQAHNGRIKRMRMRWRNEEDKKKVEQ | 1.39 |
| DENRLRHLAHHMVEVLKTGNEEEIERLMDENVRLTYGDKEVHGRENVRQYIRQLREEIDHFSVQEIDVSGDKVTIVFTFIVNGQRVRAVLKVRFHNGRIVEATIEYTDEDQKRRADS | 1.35 |
| DEDADRKFQDMVENEHRGDNDKLKKMADKNVKFTVGDKSIHGMEDYATEVRKRKERSRVRYKDVRSNDHNGRVVVKFDAQRNHNGQPKDFHVTVHFRMENGKLKEMEVRTDQ | 0.052 |
| DEEDQKRVLQEIVRMIQSGDPSQAKRLADPNATAEVGDKTYHGREKLSKYAKDLHDRVDRVHIQHYTVEGNKARIRVEVSVNGRTRQFEVKVQYHNGHITRLKVDTS | 0.05 |
| DEDTLKKMAQKIADAIRKGDEDQMERLADEDARMSYGDTTWHGRQEVKKAVREFRNQFDHLTIKRITVKGEKVKIDAEFTVNGREVSFVVIAHVNNGRLKEVVVHFTDPDTLHEALK | 0.622 |
| DDDHLRKVEDFMRAQLEGDPDRLKQLADPNVRMNVGEKKVHGMQDIATEQASTYKTARYEIKSLDSKTEGDKVVITMRVQADNNGQPHDETFHLKARLENGKIVEQSKENDG | -0.529 |
| DEEVFDEFIKHMETGDFRYLQRMFDPNAKASVGNKTVHGREQVQTLLEQLHSQVDHYHLKDVDNNENRMRVHFVLNVNGKNIEAENVFEVRNGRLKHLSIKFRNPEDQEDARRRLE | 1.12 |
| DEEEAKKVLDKAVKAVKNGDLKHLKDLGKDGVEYRIADKKAHGPEQIEKVMEYLHRKGVRIEFKRQEVKGNTVTTDIEYQQGDETYTVQAHATVKGGRIDKVEIDVSERAKKVMDHG | 0.149 |
| DEEENQELAEKFVRAIQEGDPDQITDLLDENAKATVGDRTYHGRSQIADYIHEMLKKADHFEVQSVDVQGNHIVIHVQMDINGKQVHMIIKMELSNGKVKHLEIEHK | 1.75 |
| DEKLLKRLEEFWKAVRKGNKQEIEEYADPNVRFQIGDKQVHGRENAKKYFHDERREIRIEYHDLKVRVRGDRIEIRYTVQYTHNGQPTERHYDIEIVLNGEKMKSMSVRTDR | -0.026 |
| DEKELKKVLKTVVEYLKNGKAERVVKHLHDDVQVIYDDEEVHGADKFKEMVEKFQKLGYKVEYKEVHVEGDTATVKVQVDAGGETAEFHVTYQATGQKVDRMEVKYDERAQKVIKHG | 1.14 |
| DEETKARHQIKHMNKLAQTGQLHEVAKQADPNAEFRIGDKTLRGRDNFVRQVKETADTVDHFDVQVRRVHVKGDKAKANIDLRFDVNGKQERRTLRFSAVMDNGEVVVRFMQIN | -0.03 |
| DRSQVESAMRKALHNDPREHEKMFDKDARIQIGDTTFTGQETVLRVIRQLLTKADHIQINDYEISGNKVRIDVQVEVNGRRVRVELDFTVSNGRIKHATWKARSEEELHRIKENLR | 0.239 |
| DDKEAHKRARQLVRIVQTGNESDVRKLFDKNARVVIGDKTFHGRENVQKAVREMRERVDHVQVHRVRAQGNKVRALVQYDINGKQEHYNFDMTFHNGRAKSMVVKES | 0.812 |
| DEKQVLELIRDVMKHVQNGNQEEVKKHGKPSVEVILFNERYTGPEALVRLAEFAQKLGAQFEYKETRHEGNKVKTKVEVTFGGTTVRYEVEVEAEGGKVVKWEVRASDEFDERVKKS | 1.09 |
| DEDHIKTHAEELMNALSRGDEKRFVDLVDPNARFRIGDKEYKGSEQLHTLMREIHTEVDHIEVRHLRVRNGQVQATIRYDINGKTRSMTIHFEVENGRVKHMEVSSQ | 1.3 |

| Sequence | protease stability score |
| --- | --- |
| DHHARTQAEHLLEALRNGNEDQLMKLIDPNARFRYGDKEVHGSEQFREQVHTLKREIRMDVKEYRFTVEGNRLVVKVTAILDTNGKPDTRDVDNHAIVHNGKIKQFTVDNKS | -0.134 |
| DEEEAHKVQEAWKTGDPDHLRDLFDKDVRLVYGDQEVHGREELVKIFKKQQDQYDHQHIERVSLTGNRVEIRYKAVVNGQTVSRVIYIKIKNGRIKEMEIRATNPEELKEMYRLAS | 0.284 |
| DEDDARKVRKLAKTNDWDELVHRFRDDVRFKVGNQRYSGRENAQTVAQELRKKVDHIRITSLHSTPGHVVLHMTMVVNGRKITVVIFIRMDNGRAVSFSLRVRDEEVKKHITQAFS | 0.141 |
| DEKEDLTRWIEQFVHNLEHGDEERLSQLADPNARFKYGDRTLHGMENAIKTLADVMRRVDQVRIRINDITHHENRVIVDLSFVLNHNGQERHYNAKMVAYIHNGTFRIETASMK | 0.929 |
| DEELTKRAQKQINVLRTGDEKKVLELMDPNAKLSVGEKEYHGMEDIAKTLAQENRQMRIDVKDMKFTSKGDTVDVTLSYVVDHNGQPDEQVVRVHIVAHNGKIKSQEVRRDS | -0.762 |
| DEEEASTIAKVFRTNNWEELVRLADENAKVKVGDKEVHGRHVVDEMVKLISDAADTIKYDSYTVQGEKIEMVVKLVINGQKVEFKLTARAHNGRIKEIVLSVRDEDQKRKFEKEDG | 0.783 |
| DEDHLKKFVSDLQHNSHERLSKQADENAEMEVGNKTYSGREQFSHFAQQQYHRADHFTIDRVEIRNGHITLEAVMVVDGHKIRFSAHAELHNGRLKFYVMKATNEDLVRQMNRLNN | 0.701 |
| DEKEVATRFVKTVVEILRRGNPDDWMKLVDPNATAHYGDKTYHGREELKTLMEDRNRHADRIDVDVKSYDAHNGKVQVHVVVVQTHNGRSTTHEVRIVADLHNGDAKIRSIQEQ | 0.713 |
| DEKDHARHLVKRLLHAIRTGNPDEAMRLAPPNVRVSYGDTQIHGREQFHKWVKTIRDTVDRQRFTIVNVTVHNGQANVSIRYRLNHNGKDDKNEMTARFVEHNGQLKLVSMSRS | 0.522 |
| DKEDAEKVMKTMMKVVEKGDPEQLMKVGSEGVEYQAGDLKAHGPEALKQVMDYLQKHGVRLEIKHAEVEGNTVRTYVEYKNGEETDTVEANADVDGGKIDRVEVEVGERAEKWLKHG | -0.57 |
| DEDVKELAEKYWKVVKEGNPHEVKKMVDPNVKFNVGEQHIHGREEVARQVSKENREIRINYQLRDVKVHNGRVDVTADLEEEHNGKPETNKVKAHFVFRNGRVQTLSQTNKK | -0.031 |
| DEEDLTRLHKLWRNNNWKELVNQMDPNARVTVGDEVIQGRENVTHWADRVEHQIDHYEIKDFRRQGNKILVLFRAEVNGQRFEAIVAVLMVNGDVHHLEVRFRDERDEKKFKEHVS | 1.48 |
| DSHQQAREMVRELQRILETNDTDKWRHMFDPNARAQYGDKEYHGRDQVTHYLQEQTQRVDSVRVNIDEVDVSGDKLRVVFTLVRVHNGEEKSDTYVFVLRFHGDHARIESFRRK | 0.687 |
| DESIMNMMHQLIDAMETNDPEKMKRLADKDATFVYGDKTVHGRHQAEEWIHKVKKHQRFRIDLRDVKADNGRVTVNAQIDQNHNGQPSQRTVDAKAEVSNGRVKHASVRRTS | -0.117 |
| DERDQVKRAKEYLHAFNQGDPDEADKNADPNAKVDVGDHRYHGREEFDKAVKTFKDQVDHIEVKDVKAQGNHASARVTADVNGHTLDMIITVELHNGKVKSYVVKKK | -0.175 |
| DKDAVKRFEELLRALDTNNSEQVKDLLDKNVQFRVGDKVIHGMEEAVRRQIQHNNEIRVEKEIKSIDDHNGRIHVDMTREWEHNGQPRSEKVKFTIEMHNGRVQVDNQKVTS | -0.098 |
| DEEEQNKIAETAAKAVASGDEKRLVDLADKHVKVHYGDKDLRGKEAADTLAHDLKRQVDNIKVDTVHAHNGRANADVEVRVNGKKVRYQVQVVVTNGTIDRVQLDPDMVRDHES | 0.101 |
| DEESLRKFAKRVFRALQTGNPEDIHRLFDKDAHFVVGDKEVHGREQAIKFLSHIRRRADRISLKRMSVRGDKVSIDLQMTVDGHRTRFIVYIQVHNGRARRLKIEEN | 1.57 |
| DREKQSEISTMMQKGDPQHLVDLADENAHVEIGNKRVHGRNQIKEYADRFHERVDHYSVRSIEIEGDTVTVTAYFVVNGQNIEWTMQMQNHNGKVKRIRVRFTNEELEKQLDKALS | 0.846 |
| DEHKEASEYIEQAEENMRDNNFRRMMQNADENVKLKYGDKELEGREQVESWANTVQSRADHFEIRVESMTVTGDHISIVLSHIVRHDGRRVKQKIIIIFKVHNGRARIEHIEFK | 0.044 |
| DNEEEAKKFVEELKRQYDEGNEHQIANQAPENATARVGDKNYHGRENVETYLRQIVRRADTVEIRIRSVEVHGDNVVVDFHYVLEYNGTRRNVRMKLVLDDVNGRKVALVIVQS | 0.572 |
| DSREAKRAETFFRLVQRGDSRKLQEYMDPNARINIGEKRIHGRENYAKEVKDRREHIRVDIKSLEASDTNGRIHVEVHFEHSHNGRPDQQTMELRITMHNGRAQEITQHETK | -0.223 |
| DETAARDVEELLTHVKTNNPENVVKLADPNAKAKIGDQTVKGREELTKQMTKELRHQRMSVEIKDYKVHGNKVVIDAEFTYNHNGRPQKKDVEIYVVFRGEKIEKFVWRTDG | 0.627 |
| DEEVKSRADEFIKALKTGDPETISRLMDPNAQVEVGDKTIHGRENIMREIHNLKHRMNLSMEINNVDVQGDTVNIDAVVRFTHNGKPSEHKVDIQVVAQGDKIDHVVFDSTK | 1.22 |
| DQERNEQAKKLLDIINTGDEHKVKDMFDPNASIKVGDHTLHGREEIAKHYRREKDESRYQVDRVDFKAHGEKVRVSVKYTFRHNGKPLTATVEYNFRMHNGRIKDLSVRFDEQRQRDRDS | 0.117 |
